We go through 15 sequences from the supplement of paper PMC9170038.

Data set [1] concerns MS2 coat protein. The data set is described as follows: apparent KD of MS2 coat protein; designed switch direction (-1 OFF switch, 1 ON switch): -1; higher = weaker reporter binding. The settings on record: Eterna round: R98. The procedure: (§1)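 RNA-MaP: designed FMN/MS2 RNA switches (84 nt design region) are transcribed on-chip within common flanks and titrated with SNAP-549-labelled MS2 coat protein (about 1-3000 nM) in 100 mM Tris pH 7.5, 80 mM KCl, 4 mM MgCl2, without or with 200 uM FMN. Median apparent KD per design; activation ratio = KD,OFF / KD,ON.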

Data set [2] deals with MS2 coat protein. Kind of data set: apparent KD of MS2 coat protein; higher = weaker reporter binding. Conditions: Eterna round: R101. The procedure: as §1

Take “AAAAUAAAGGCAGGAUAUACAUGAAUAUAUAAUAUAAUAUAUAAUAUAACAUGAGGAUCACCCAUGUAGAAGGGCCAAAAUAAA [LRO026_Exclusion NG 2]”: the entries for the “apparent KD of MS2 coat protein” value in data set [1] (input ligand: FMN 200 uM) and in data set [1] (input ligand: none) were 88.1 nM and 46.4 nM, respectively.

In the case of “AAAUAAACUCAAGGAUAUGACUCCGAAACGGAGUCAGAAGGUGAGGAUCACCCACCUAAGAUCAGACCUCAGGAAACUGAGGUC [#SharedSequence ExNG1 - 36] (puzzle (switch architecture): Exclusion NG 1)”, the “apparent KD of MS2 coat protein” value turned out to be 13.2 nM in data set [2] (input ligand: FMN 200 uM) and 6.46 nM in data set [2] (input ligand: none).

Take “AAAUAAAUUCAAGGAUAUCAGUGGCAAAGCCACUGAGAAGGUGAGGAUCACCCACCUAUGAUCACAGGUGACGAAAGUCACCUG [#SharedSequence ExNG1 - 38] (puzzle (switch architecture): Exclusion NG 1)”: the entries for the “apparent KD of MS2 coat protein” value in data set [2] (input ligand: FMN 200 uM) and in data set [2] (input ligand: none) were 11.4 nM and 11.3 nM, respectively.

With “AAAUCUCGAGCCGACGGGAGAGUACAUGAGGAUCACCCAUGUGAGGAUAUCCCUGAGAAGACGGCGGAGAAGGCACUGGGUAGG [Erzaribeve] (puzzle (switch architecture): Exclusion NG 3)”, the figures for the “apparent KD of MS2 coat protein” value in data set [2] (input ligand: FMN 200 uM) and in data set [2] (input ligand: none) were 9.95 nM and 8.6 nM, respectively.

As to “AAAUGAUAUCAGAAGGGCUCCAGCAAAGCUGGAGCAGGAUAUGAGGAUCACCCAUGUCACCUGACGGUCGAAACGACCGUCAGG [#SharedSequence - IExNG1: 7-3] (puzzle (switch architecture): Inverted Exclusion NG 1)”, the “apparent KD of MS2 coat protein” value was 205 nM in data set [2] (input ligand: FMN 200 uM) and 26.6 nM in data set [2] (input ligand: none).

In the case of “AAAUGCCUGUCGAUGCUCGACAUGAGGAUCACCCAUGUAUAGCAGGAUAUGCAGAACUGACUCGUGCAGAAGGGCUAUACCUAA (puzzle (switch architecture): Exclusion NG 3)”, the “apparent KD of MS2 coat protein” value stood at 52.8 nM in data set [2] (input ligand: FMN 200 uM) and 18.7 nM in data set [2] (input ligand: none).

Take “AAUAAUCUUUAAGGAUAUCAGUGGCAAAGCCACUGAGAAGGUGAGGAUCACCCACCUACGUGACCCUGGAAACAGGGUCACGAA [#SharedSequence - ExNG1-10] (puzzle (switch architecture): Exclusion NG 1)”: the “apparent KD of MS2 coat protein” value turned out to be 15.4 nM in data set [2] (input ligand: FMN 200 uM) and 14.3 nM in data set [2] (input ligand: none).

Regarding “AAUAUAAAGAGCUGGUCUCAAAUAACAUGAGGAUCACCCAUGUAGGAUAUCAGCACGAUAAGUGCUGAGAAGGACAUCCAGCUC [Denovo 49]”, the figures for the “apparent KD of MS2 coat protein” value in data set [1] (input ligand: FMN 200 uM) and in data set [1] (input ligand: none) were 18.9 nM and 15.9 nM, respectively.

With “AUAUAUAUAUAGAAGGACAUGAGGAUCACCCAUGUCGCCGGGCCCGGGAAACCGGGCCCGGCCAUGUAGGAUAUAUAUAUAUAU [#This is a good prank 12] (puzzle (switch architecture): Inverted Exclusion NG 2)”, the results for the “apparent KD of MS2 coat protein” value in data set [2] (input ligand: FMN 200 uM) and in data set [2] (input ligand: none) were 5.57 nM and 3.55 nM, respectively.

“CAGUCGACCAUAACAAGGUCGACUGACUUCUGAGGAUCACCCAGAAGGCGUCACCUAAUAGGUGACGAGGAUAUGGAGUGAAAA [#SharedSequence IExNG# - 6] (puzzle (switch architecture): Inverted Exclusion NG 3)”: the entries for the “apparent KD of MS2 coat protein” value in data set [2] (input ligand: FMN 200 uM) and in data set [2] (input ligand: none) were 75 nM and 95 nM, respectively.

In the case of “GAGAAGAAGUUAGGAUAUUGGAUAGGGACGGAAUAAGAAGGAGCAAGGGACAUGAGGAUCACCCAUGUAGAAGAAGAGAUCCUC [X-NG1_50] (puzzle (switch architecture): Exclusion NG 1)”, the “apparent KD of MS2 coat protein” value turned out to be 10.9 nM in data set [2] (input ligand: FMN 200 uM) and 26.7 nM in data set [2] (input ligand: none).

Consider “GCAGCUAAUGCAGGAUAUCAGCACGUGUAGUGCUGAGAAGGGCACAUGAGGAUCAAAACUGUGAUCAAUUAAUAUUAAUGCUGC [salish99#hingeEx3_55-58_001] (puzzle (switch architecture): Exclusion NG 1)”, for which the “apparent KD of MS2 coat protein” value is 8.28 nM in data set [2] (input ligand: FMN 200 uM) and 9.12 nM in data set [2] (input ligand: none).

As for “GCCAUCGCAUGAGGAUAUGCUCCGGUUUCCGGAGCAGAAGGCAUGUCAUAAGACAUGAGGAUCACCCAUGUAGUUAAGAUGGCA [#HiddenHairpinInALoop - jl-sng1-2.00 jl mod - Original] (puzzle (switch architecture): Same State NG 1)”, the entries for the “apparent KD of MS2 coat protein” value in data set [2] (input ligand: FMN 200 uM) and in data set [2] (input ligand: none) were 10.6 nM and 283 nM, respectively.

“GGAGAUACAUGAGGAUCACCCAUGUAGGAUAUAUAGUAUAUAUAUAUUGAAAGAUAUAUAUAUAUAUAGAAGGGCGUGCACACC [#LOL-17] (puzzle (switch architecture): Small Loop Exclusion NG 3)”: the figures for the “apparent KD of MS2 coat protein” value in data set [2] (input ligand: FMN 200 uM) and in data set [2] (input ligand: none) were 6.32 nM and 8.77 nM, respectively.

Turning to “GGUCGACUUCAAGGAUAUGGACUGCAAAGCAGUCCAGAAGGUGAGGAUCACCCACCUACGGUCAGGAAACUGACCGAUCGACCA [#SharedSequence - ExNG1-4] (puzzle (switch architecture): Exclusion NG 1)”, the “apparent KD of MS2 coat protein” value in data set [2] (input ligand: FMN 200 uM) came out at 12.3 nM; in data set [2] (input ligand: none), 10.5 nM.
